The source of these data is US20250027068A1.

Positions count from the first letter of the chain named.

The target in this assay is pooled human IgG (human). Nature of the assay: cell-based or functional assay.

B1: VRT-4 (Fc fusion)
chain: SQTEDSESLQRLRDIEDFQAEKKMQNVVYTKWLDGVDVKDHDFRKIVDGNIAYYATPLLNGRGFYDINKDFNRDSDKCAAAVAANMFHYWLDINRDNVDRFLRQNPEKHGIIELPDGQLKLSDFLNTYESDHGYRDKSKLFDFISNNFNGPVWTDKLLDNYINGYAYNYKYGRTIEDPTKNTSKINFFKEVFNEKILTNNHSIRNQNEFSVLLSEALYTGKAIGLSYGPAGLRHSLGHIISVWGADLDADGNVVAIYVTDSDDKKLTIGDERVGLKRYKISTDDENRLRLTAYEETHNTGGQIRGLWTLDTGKYAWADYFDKTEQTGTDQAEQDKTHTCPPCPAPEAAGAPSVFLFPPKPKDTLMISRTPEVTCVVVDVSHEDPEVKFNWYVDGVEVHNAKTKPREEQQNSTYRVVSVLTVLHQDWLNGKEYKCKVSNKALKAPIEKTISKAKGQPREPQVYTLPPSRDELTKNQVSLTCLVKGFYPSDIAVEWESNGQPENNYKTTPPVLDSDGSFFLYSKLTVDKSRWQQGNVFSCSVMHEALHNHYTQKSLSLSPG
Take B1: the Enzyme Activity Endpoint Assay: Fab′2 was determined as 0 ng/µL, the Enzyme Activity Endpoint Assay: Fc is 29 ng/µL, the Enzyme Activity Endpoint Assay: IgG was 990 ng/µL and the Enzyme Activity Endpoint Assay: scIgG is 24 ng/µL.

B2: VRT-10 (Fc fusion)
chain: TITSVWTKGVTPPTPEDFRYNNEDVLHAPYVANQGWYDITKTFDGKDNLLCGAATAGNMLHWWFDQNKEEIERYLKKHPEKQKIIFNNQELFDVKAAIDTKDSQTNSKLFNYFRDKAFPNLSARQLGVMPDLVLDMFINGYYLNLGKTQSTDVNRPYQDKDKRGGIFDAVFTRGDQTTLLTARHDLKNKGLNEISDLIKQELTEGKALALSHTYANVRINHVINLWGADFDAEGNLIAIYVTDSDANASIGMKKYFVGVNANGKVAISAKKIEGDNIGAQVLGLFTLSTGQDIWQKLSDKTHTCPPCPAPEAAGAPSVFLFPPKPKDTLMISRTPEVTCVVVDVSHEDPEVKFNWYVDGVEVHNAKTKPREEQQNSTYRVVSVLTVLHQDWLNGKEYKCKVSNKALKAPIEKTISKAKGQPREPQVYTLPPSRDELTKNQVSLTCLVKGFYPSDIAVEWESNGQPENNYKTTPPVLDSDGSFFLYSKLTVDKSRWQQGNVFSCSVMHEALHNHYTQKSLSLSPG
On to B2, for which the Enzyme Activity Endpoint Assay: Fab′2 is 56 ng/µL, the Enzyme Activity Endpoint Assay: Fc was found to be 266 ng/µL, the Enzyme Activity Endpoint Assay: IgG is 71 ng/µL and the Enzyme Activity Endpoint Assay: scIgG stood at 169 ng/µL.

B3: VRT-5 (Fc fusion)
chain: VTSVWTKGVTPPANFTQGEDVFHAPYKANQGWYDITKTFNGKDDLLCGAATAGNMLHWWFDQNKDQIEAYLKEHPEKQKINFNGEQMFDVKEAIDTKDDQTNSKLFEYFKEKAFPYLSTKHLGVFPDHVLDMFINGYRLSLTNHGPTPVKEGSKDPRGGIFDAVFTRGDQSKLLTSRHDFKEKTLKEISDLIKQELTEGKALALSHTYANVRINHVINLWGADFDSNGNLEAIYVTDSDSNASIGMKKYFVGVNSAGKVAISAKEIEDDNIGAQVLGLFTLSTGQDIWNQTNDKTHTCPPCPAPEAAGAPSVFLFPPKPKDTLMISRTPEVTCVVVDVSHEDPEVKFNWYVDGVEVHNAKTKPREEQQNSTYRVVSVLTVLHQDWLNGKEYKCKVSNKALKAPIEKTISKAKGQPREPQVYTLPPSRDELTKNQVSLTCLVKGFYPSDIAVEWESNGQPENNYKTTPPVLDSDGSFFLYSKLTVDKSRWQQGNVFSCSVMHEALHNHYTQKSLSLSPG
Turning to B3, the Enzyme Activity Endpoint Assay: Fab′2 was determined as 137 ng/µL, the Enzyme Activity Endpoint Assay: Fc was 294 ng/µL, the Enzyme Activity Endpoint Assay: IgG was found to be 89 ng/µL and the Enzyme Activity Endpoint Assay: scIgG is 151 ng/µL.

B4: VRT-1 (Fc fusion)
chain: VTSVWTKGVTPPANFTQGEDVFHAPYVANQGWYDITKTFNGKDDLLCGAATAGNMLHWWFDQNKDQIKRYLEEHPEKQKINFNGEQMFDVKEAIDTKNHQLDSKLFEYFKEKAFPYLSTKHLGVFPDHVIDMFINGYRLSLTNHGPTPVKEGSKDPRGGIFDAVFTRGDQSKLLTSRHDFKEKNLKEISDLIKKELTEGKALGLSHTYANVRINHVINLWGADFDSNGNLKAIYVTDSDSNASIGMKKYFVGVNSAGKVAISAKEIKEDNIGAQVLGLFTLSTGQDSWNQTNDKTHTCPPCPAPEAAGAPSVFLFPPKPKDTLMISRTPEVTCVVVDVSHEDPEVKFNWYVDGVEVHNAKTKPREEQQNSTYRVVSVLTVLHQDWLNGKEYKCKVSNKALKAPIEKTISKAKGQPREPQVYTLPPSRDELTKNQVSLTCLVKGFYPSDIAVEWESNGQPENNYKTTPPVLDSDGSFFLYSKLTVDKSRWQQGNVFSCSVMHEALHNHYTQKSLSLSPG
Regarding B4, the Enzyme Activity Endpoint Assay: Fab′2 is 175 ng/µL, the Enzyme Activity Endpoint Assay: Fc is 334 ng/µL, the Enzyme Activity Endpoint Assay: IgG came out at 197 ng/µL and the Enzyme Activity Endpoint Assay: scIgG is 137 ng/µL.

B5: VRT-6 (Fc fusion)
chain: B3 chain with K27V, A69R, D99S, N102D, A203G, N227E, E231K, E267K, D268E
B5: the Enzyme Activity Endpoint Assay: Fab′2 was 132 ng/µL, the Enzyme Activity Endpoint Assay: Fc came out at 304 ng/µL, the Enzyme Activity Endpoint Assay: IgG is 78 ng/µL and the Enzyme Activity Endpoint Assay: scIgG came out at 172 ng/µL.

B6: VRT-3 (Fc fusion)
chain: QITSVWTKGVTPLTPEQFRYNNEDVIHAPYLAHQGWYDITKAFDGKDNLLCGAATAGNMLHWWFDQNKTEIEAYLSKHPEKQKIIFNNQELFDLKAAIDTKDSQTNSQLFNYFRDKAFPNLSARQLGVMPDLVLDMFINGYYLNVFKTQSTDVNRPYQDKDKRGGIFDAVFTRGDQTTLLTARHDLKNKGLNDISTIIKQELTEGRALALSHTYANVSISHVINLWGADFNAEGNLEAIYVTDSDANASIGMKKYFVGINAHGHVAISAKKIEGENIGAQVLGLFTLSSGKDIWQKLSDKTHTCPPCPAPEAAGAPSVFLFPPKPKDTLMISRTPEVTCVVVDVSHEDPEVKFNWYVDGVEVHNAKTKPREEQQNSTYRVVSVLTVLHQDWLNGKEYKCKVSNKALKAPIEKTISKAKGQPREPQVYTLPPSRDELTKNQVSLTCLVKGFYPSDIAVEWESNGQPENNYKTTPPVLDSDGSFFLYSKLTVDKSRWQQGNVFSCSVMHEALHNHYTQKSLSLSPG
As for B6, the Enzyme Activity Endpoint Assay: Fab′2 was determined as 0 ng/µL, the Enzyme Activity Endpoint Assay: Fc was 99 ng/µL, the Enzyme Activity Endpoint Assay: IgG stood at 808 ng/µL and the Enzyme Activity Endpoint Assay: scIgG amounted to 50 ng/µL.

B7: VRT-11 (Fc fusion)
chain: B6 chain with L13P, H33N, A42T, D44N, G190T, I197L, R206K, I259V, H264K
B7 gave an Enzyme Activity Endpoint Assay: Fab′2 of 0 ng/µL, an Enzyme Activity Endpoint Assay: Fc of 90 ng/µL, an Enzyme Activity Endpoint Assay: IgG of 829 ng/µL and an Enzyme Activity Endpoint Assay: scIgG of 38 ng/µL.

B8: VRT-2 (Fc fusion)
chain: VTSVWTKGVTPPAKFTQGEDVFHAPYVANQGWYDITKTFNGKDDLLCGAATAGNMLHWWFDQNKEKIEAYLKKHPDKQKIMFGDQELLDVRKVINTKGDQTNSELFNYFRDKAFPGLSARRIGVMPDLVLDMFINGYYLNVYKTQTTDVNRTYQEKDRRGGIFDAVFTRGDQSKLLTSRHDFKEKNLKEISDLIKKELTEGKALGLSHTYANVRINHVINLWGADFDSNGNLKAIYVTDSDSNASIGMKKYFVGVNSAGKVAISAKEIKEDNIGAQVLGLFTLSTGQDSWNQTNDKTHTCPPCPAPEAAGAPSVFLFPPKPKDTLMISRTPEVTCVVVDVSHEDPEVKFNWYVDGVEVHNAKTKPREEQQNSTYRVVSVLTVLHQDWLNGKEYKCKVSNKALKAPIEKTISKAKGQPREPQVYTLPPSRDELTKNQVSLTCLVKGFYPSDIAVEWESNGQPENNYKTTPPVLDSDGSFFLYSKLTVDKSRWQQGNVFSCSVMHEALHNHYTQKSLSLSPG
B8 returned an Enzyme Activity Endpoint Assay: Fab′2 of 97 ng/µL, an Enzyme Activity Endpoint Assay: Fc of 238 ng/µL, an Enzyme Activity Endpoint Assay: IgG of 247 ng/µL and an Enzyme Activity Endpoint Assay: scIgG of 100 ng/µL.

B9: VRT-7 (Fc fusion)
chain: VTSVWTKGVTPPTNFTYGEDVLHAPYVANQGWYDITKTFNGKDDLLCGAATAGNMLHWWFDQNKEQIENYLKKHPEKQKINFNGEQMFDVKEAIDTKDSQLDSKLFEYFKEKAFPYLSTKHLGVFPDHVIDMFINGYRLSLTNHGPTPVKRGSKDPRGGIFDAVFTRGDQSKLLTNRHDFKEKTLKEISDLIKQELTEGKALGISHTYANVRINHVINLWGADFDAEGNLEAIYVTDSDSNASIGMKKYFVGVNSNGKVAISAKEIEEDNIGAQVLGLFTLSTGQDIWNQTNDKTHTCPPCPAPEAAGAPSVFLFPPKPKDTLMISRTPEVTCVVVDVSHEDPEVKFNWYVDGVEVHNAKTKPREEQQNSTYRVVSVLTVLHQDWLNGKEYKCKVSNKALKAPIEKTISKAKGQPREPQVYTLPPSRDELTKNQVSLTCLVKGFYPSDIAVEWESNGQPENNYKTTPPVLDSDGSFFLYSKLTVDKSRWQQGNVFSCSVMHEALHNHYTQKSLSLSPG
B9 gave an Enzyme Activity Endpoint Assay: Fab′2 of 61 ng/µL, an Enzyme Activity Endpoint Assay: Fc of 258 ng/µL, an Enzyme Activity Endpoint Assay: IgG of 178 ng/µL and an Enzyme Activity Endpoint Assay: scIgG of 249 ng/µL.

B10: VRT-8 (Fc fusion)
chain: VTSVWTKGVTPPADFTQGEDVFHAPYVANQGWYDITKTFNGKDDLLCGAATAGNMLHWWFDQNKEYIEAYLKKHPEKQKIMFGDQELLDVRKAINTKGSQKNSELFNYFRDKAFPNLSARRLGVMPDLVLDMFINGYYLNVTKTQTTDVNRTYQEKDKRGGIFDAVFTRGDQSKLLTSRHDFKEKGLKEISDLIKQELTEGKALGLSHTYANVRINHVINLWGADFDSDGNLKAIYVTDSDSNASIGMKKYFVGVNSAGKVAISAKEIKEDNIGAQVLGLFTLSTGQDIWNQTNDKTHTCPPCPAPEAAGAPSVFLFPPKPKDTLMISRTPEVTCVVVDVSHEDPEVKFNWYVDGVEVHNAKTKPREEQQNSTYRVVSVLTVLHQDWLNGKEYKCKVSNKALKAPIEKTISKAKGQPREPQVYTLPPSRDELTKNQVSLTCLVKGFYPSDIAVEWESNGQPENNYKTTPPVLDSDGSFFLYSKLTVDKSRWQQGNVFSCSVMHEALHNHYTQKSLSLSPG
For the molecule B10, the Enzyme Activity Endpoint Assay: Fab′2 was found to be 0 ng/µL, the Enzyme Activity Endpoint Assay: Fc is 126 ng/µL, the Enzyme Activity Endpoint Assay: IgG amounted to 652 ng/µL and the Enzyme Activity Endpoint Assay: scIgG was 125 ng/µL.
